This note sets out measurements from PMC4709127, “Wuho Is a New Member in Maintaining Genome Stability through its Interaction with Flap Endonuclease 1”.

One series addresses T1, hWH (Wuho, WDR4) (Homo sapiens, UniProt P57081 1-412).
T1 sequence: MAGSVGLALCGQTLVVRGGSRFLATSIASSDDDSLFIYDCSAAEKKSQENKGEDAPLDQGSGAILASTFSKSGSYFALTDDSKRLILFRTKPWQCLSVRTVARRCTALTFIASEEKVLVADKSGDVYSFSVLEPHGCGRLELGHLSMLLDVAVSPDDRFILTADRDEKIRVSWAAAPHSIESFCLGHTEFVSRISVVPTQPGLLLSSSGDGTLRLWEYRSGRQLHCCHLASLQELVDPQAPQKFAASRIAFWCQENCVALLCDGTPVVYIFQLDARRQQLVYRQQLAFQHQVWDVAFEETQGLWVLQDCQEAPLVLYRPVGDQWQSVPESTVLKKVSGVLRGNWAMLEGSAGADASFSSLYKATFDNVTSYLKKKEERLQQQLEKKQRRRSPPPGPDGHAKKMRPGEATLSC
Description: EMSA; hWH 25-1000 nM, no significant affinity; 50 nM DNA, 50 mM Tris pH 8, 50 mM NaCl, 37 C, 10 min, 20 ul; TBE-PAGE. The following applies: protein: recombinant, tags: C-terminal His6 (pET23b), label: 5' fluorophore (FAM on oligo 1, or Cy5 on oligo 4). (Mobility shift assays separate free from complexed probe on a gel.)

Another series deals with FEN1 (Homo sapiens, UniProt P39748 1-380). Description: EMSA; no Mg2+ in binding buffer; FEN1 25-1000 nM; 50 nM DNA, 50 mM Tris pH 8, 50 mM NaCl, 37 C, 10 min, 20 ul; TBE-PAGE. The following applies: protein: recombinant, tags: C-terminal His6, label: 5' fluorophore (FAM on oligo 1, or Cy5 on oligo 4).
Sequence of FEN1 (P39748 whole entry): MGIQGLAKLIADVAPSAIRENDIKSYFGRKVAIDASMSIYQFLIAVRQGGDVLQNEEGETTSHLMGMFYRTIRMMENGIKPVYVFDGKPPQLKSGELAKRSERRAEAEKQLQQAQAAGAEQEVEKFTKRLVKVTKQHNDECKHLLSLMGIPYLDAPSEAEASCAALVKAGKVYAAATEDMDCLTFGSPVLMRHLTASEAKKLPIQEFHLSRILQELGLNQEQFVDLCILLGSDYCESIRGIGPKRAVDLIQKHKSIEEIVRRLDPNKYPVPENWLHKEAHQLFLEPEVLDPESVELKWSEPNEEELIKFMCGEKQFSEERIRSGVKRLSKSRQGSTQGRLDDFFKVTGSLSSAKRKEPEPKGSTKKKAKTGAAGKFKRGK
Where [1] appears, read: double flap: 1:15-34 or 1:21-34 pairs with 2:1-14 (14 bp), 5' flap 20 nt, 3:1-16 pairs with 2:15-30 (16 bp), 3' flap 1 nt.
Where [2] appears, read: fork: 14 bp duplex (1:21-34 with 2:1-14), 5' arm 20 nt, 3' arm 16 nt.

B1: Double-flap substrate (dsDNA)
DNA 1: GATGTCAAGCAGTCCTAACTTTGAGGCAGAGTCC
DNA 2: GGACTCTGCCTCAAGACGGTAGTCAACGTG
DNA 3: CACGTTGACTACCGTCC
As to B1, the binding result in the series with hWH (Wuho, WDR4) (setting [1]) is “no binding”; with FEN1 (setting [1]), “binds”.

B2: Y-shape substrate (dsDNA)
DNA 1: GATGTCAAGCAGTCCTAACTTTGAGGCAGAGTCC
DNA 2: GGACTCTGCCTCAAGACGGTAGTCAACGTG
Consider B2, for which the binding result with hWH (Wuho, WDR4) (setting [2]) is reported as “no binding”; with FEN1 (setting [2]), “binds”.
